Patent US20210079557A1, “Methods and Compositions for Protein and Peptide Sequencing” (Google LLC, published 2021)
No end group written: not given here.

T1: bradykinin peptide-oligo conjugate (synthetic, also: C-terminal Cys conjugated to 3' end of DNA oligo tail)
T1 chain: RPPGFSPFRC

T2: argipressin peptide-oligo conjugate (synthetic, UniProt P01185 P01185:20-28, ends and bridges not checked; also: oligonucleotide conjugate, site not given here)
T2 chain: CYFQNCPRG


Assays:
[1] = target: T1, bradykinin peptide-oligo conjugate; experiment: no off-target hits; conditions: tags: C-terminal Cys conjugated to DNA oligo tail tethered to flow cell (Genscript)
[2] = target: T2, argipressin peptide-oligo conjugate; experiment: barcode ligation sequencing on flow cell, over 100 hits on argipressin foundations; conditions: tags: C-terminal DNA oligo tail tethered to flow cell (Genscript)

Binder	binding result [1]	binding result [2]
argipressin BCS aptamer 2 (ssDNA, 5'-phosphate) DNA: GAGAGTTAGTCAGCAGGGATAACGAATTCGTATAGGCGCAGCATTTGATTCTGCTGCGTGCATACCCCTGTGTGTTATCCCTACTTGGCGTTCTTACCACCA	no binding	binds
argipressin BCS aptamer 3 (ssDNA, 5'-phosphate) DNA: GAGAGTCCACGTGCACAGATAACGAATTCGTATAGGCGCAGCATACATCGGACATACATCCTGCGTGCATCCACCTTTGCATACTTGGCGTTCTTACCACCA	no binding	binds
argipressin BCS aptamer 1 (ssDNA, 5'-phosphate) DNA: GAGAGTAAAGCCGATAGGATAACGAATTCGTATAGGCGCAGGATGGACTTGATAACCTTCTGCTGCGTGCCTTGATGTGCTTACTTGGCGTTCTTACCACCA	no binding	binds
